Biological target: GST-Ago-2 (full-length recombinant Ago-2) (UniProt Q9UKV8 1-859)
Assay: cell-based or functional assay

GST-Ago-2 (full-length recombinant Ago-2), sequence (Q9UKV8 whole entry): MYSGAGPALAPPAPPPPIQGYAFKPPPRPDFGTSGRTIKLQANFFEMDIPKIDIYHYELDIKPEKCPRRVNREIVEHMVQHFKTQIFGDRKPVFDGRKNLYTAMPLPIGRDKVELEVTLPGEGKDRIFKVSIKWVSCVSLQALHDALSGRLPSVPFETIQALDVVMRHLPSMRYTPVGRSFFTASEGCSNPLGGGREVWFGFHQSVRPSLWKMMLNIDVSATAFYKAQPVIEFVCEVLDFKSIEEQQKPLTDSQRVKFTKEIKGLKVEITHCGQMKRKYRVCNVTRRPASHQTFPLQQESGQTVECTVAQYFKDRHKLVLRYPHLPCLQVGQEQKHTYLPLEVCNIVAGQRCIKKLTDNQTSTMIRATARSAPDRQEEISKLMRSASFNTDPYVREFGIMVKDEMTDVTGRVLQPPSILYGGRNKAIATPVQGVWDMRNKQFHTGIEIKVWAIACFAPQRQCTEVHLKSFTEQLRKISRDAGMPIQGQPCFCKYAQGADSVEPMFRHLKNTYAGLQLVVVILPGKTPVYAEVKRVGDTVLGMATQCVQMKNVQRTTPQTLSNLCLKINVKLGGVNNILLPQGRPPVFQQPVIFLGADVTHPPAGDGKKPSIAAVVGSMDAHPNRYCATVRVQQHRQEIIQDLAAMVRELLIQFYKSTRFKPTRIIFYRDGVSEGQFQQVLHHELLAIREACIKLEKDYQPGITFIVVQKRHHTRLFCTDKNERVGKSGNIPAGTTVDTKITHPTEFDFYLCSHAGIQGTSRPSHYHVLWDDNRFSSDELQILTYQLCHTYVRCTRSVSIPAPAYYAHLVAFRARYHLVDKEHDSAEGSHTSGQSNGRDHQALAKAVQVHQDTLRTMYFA

- in vitro reconstituted deadenylation of radiolabeled L3(A30) RNA substrate, limiting amounts of His-PARN and increasing amounts of GST-Ago-2: 2.4 fold
B1: His-PARN (full-length recombinant PARN) (enzyme, UniProt O95453 1-639, looked up)
chain: MEIIRSNFKSNLHKVYQAIEEADFFAIDGEFSGISDGPSVSALTNGFDTPEERYQKLKKHSMDFLLFQFGLCTFKYDYTDSKYITKSFNFYVFPKPFNRSSPDVKFVCQSSSIDFLASQGFDFNKVFRNGIPYLNQEEERQLREQYDEKRSQANGAGALSYVSPNTSKCPVTIPEDQKKFIDQVVEKIEDLLQSEENKNLDLEPCTGFQRKLIYQTLSWKYPKGIHVETLETEKKERYIVISKVDEEERKRREQQKHAKEQEELNDAVGFSRVIHAIANSGKLVIGHNMLLDVMHTVHQFYCPLPADLSEFKEMTTCVFPRLLDTKLMASTQPFKDIINNTSLAELEKRLKETPFNPPKVESAEGFPSYDTASEQLHEAGYDAYITGLCFISMANYLGSFLSPPKIHVSARSKLIEPFFNKLFLMRVMDIPYLNLEGPDLQPKRDHVLHVTFPKEWKTSDLYQLFSAFGNIQISWIDDTSAFVSLSQPEQVKIAVNTSKYAESYRIQTYAEYMGRKQEEKQIKRKWTEDSWKEADSKRLNPQCIPYTLQNHYYRNNSFTAPSTVGKRNLSPSQEEAGLEDGVSGEISDTELEQTDSCAEPLSEGRKKAKKLKRMKKELSPAGSISKNSPATLFEVPDTW

Source: publication PMC4678859, “PARN deadenylase is involved in miRNA-dependent degradation of TP53 mRNA in mammalian cells” (Nucleic Acids Research, 2015)
